Experimental data: US20140030725

Key:
[1] = tested on: HQ:CBS:HT (5xHQ tag:CBS variant 1A5:HaloTag), from pFNA:HQ(5x):CBS:HT(7)
[2] = tested on: CBS-HaloTag (CBS-HT) fusion protein (CBS variant 1A5 cloned into pFN19K HaloTag)
Sequence of CBS-HaloTag (CBS-HT) fusion protein (CBS variant 1A5 cloned into pFN19K HaloTag) (chain, as listed by the source mutant): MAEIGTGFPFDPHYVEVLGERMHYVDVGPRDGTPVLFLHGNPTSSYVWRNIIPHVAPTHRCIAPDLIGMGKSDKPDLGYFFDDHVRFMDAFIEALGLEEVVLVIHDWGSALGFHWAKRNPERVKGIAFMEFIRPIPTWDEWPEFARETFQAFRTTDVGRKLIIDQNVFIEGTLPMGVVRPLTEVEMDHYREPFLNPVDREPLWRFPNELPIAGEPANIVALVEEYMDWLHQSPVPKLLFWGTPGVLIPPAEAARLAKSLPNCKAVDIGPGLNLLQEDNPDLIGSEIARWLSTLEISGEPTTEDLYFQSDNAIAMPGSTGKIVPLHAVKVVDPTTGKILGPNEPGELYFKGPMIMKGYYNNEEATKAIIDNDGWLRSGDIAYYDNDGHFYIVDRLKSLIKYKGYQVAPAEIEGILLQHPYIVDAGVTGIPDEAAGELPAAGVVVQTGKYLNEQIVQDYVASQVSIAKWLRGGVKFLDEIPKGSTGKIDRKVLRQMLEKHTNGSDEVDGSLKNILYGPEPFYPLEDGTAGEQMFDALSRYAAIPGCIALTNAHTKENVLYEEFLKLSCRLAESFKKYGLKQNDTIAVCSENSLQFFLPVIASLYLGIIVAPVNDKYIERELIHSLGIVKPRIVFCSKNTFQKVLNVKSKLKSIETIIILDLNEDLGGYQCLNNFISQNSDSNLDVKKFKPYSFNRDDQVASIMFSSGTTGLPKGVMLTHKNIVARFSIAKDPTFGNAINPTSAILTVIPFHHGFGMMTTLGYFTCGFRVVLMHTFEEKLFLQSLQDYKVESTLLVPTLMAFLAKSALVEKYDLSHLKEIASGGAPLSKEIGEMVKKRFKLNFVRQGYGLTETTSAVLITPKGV

With “recombinant caspase-3 (E. coli KRX lysate, pTS1k:caspase-3(T/S))” the “INDUCED luminescence, HisLink elution fraction E1” value [1] was 2,951,899, the “INDUCED luminescence, HisLink elution fraction E2” value [1] was 40,913,496 and the “INDUCED luminescence, HisLink elution fraction E3” value [1] was 3,287,059. The “INDUCED luminescence, HisLink elution fraction E4” value [1] was 215,580, the “INDUCED luminescence, HisLink elution fraction E5” value [1] was 48,068 and the “INDUCED luminescence, HisLink purification sample HSS” value [1] was 12,875,742. For the same substance, the “INDUCED luminescence, HisLink purification sample NSM” value [1] was 5,822,003, the “INDUCED luminescence, HisLink purification sample WASH” value [1] was 3,706,541 and the “INDUCED luminescence, purified HQ:CBS:HT immobilised on HaloLink plate” value [1] was 661,597. It also gave an RESPONSE, HisLink elution fraction E1 [1] of 699 fold, an RESPONSE, HisLink elution fraction E2 [1] of 212 fold and an RESPONSE, HisLink elution fraction E3 [1] of 178 fold. The RESPONSE, HisLink elution fraction E4 [1] was 191 fold, the RESPONSE, HisLink elution fraction E5 [1] was 178 fold and the RESPONSE, HisLink purification sample HSS [1] was 43 fold. The RESPONSE, HisLink purification sample NSM [1] was 33 fold, the RESPONSE, HisLink purification sample WASH [1] was 479 fold and the RESPONSE, purified HQ:CBS:HT immobilised on HaloLink plate [1] was 96 fold. The “INDUCED luminescence (5 min; CBS-HT from wheat germ extract + E. coli lysate containing caspase-3)” value [2] was 4,626,173, the “INDUCED luminescence, CBS-HT immobilised on HaloLink RESIN” value [2] was 1,635,259 and the “INDUCED luminescence, CBS-HT immobilised on HaloTag-ligand plate, 0 min” value [2] was 1,226. For the same substance, the “INDUCED luminescence, CBS-HT immobilised on HaloTag-ligand plate, 1 min” value [2] was 1,636, the “INDUCED luminescence, CBS-HT immobilised on HaloTag-ligand plate, 2 min” value [2] was 2,267 and the “INDUCED luminescence, CBS-HT immobilised on HaloTag-ligand plate, 3 min” value [2] was 2,147. The “INDUCED luminescence, CBS-HT immobilised on HaloTag-ligand plate, 4 min” value [2] was 2,297, the “INDUCED luminescence, CBS-HT immobilised on HaloTag-ligand plate, 5 min” value [2] was 2,857 and the “INDUCED luminescence, CBS-HT immobilised on HaloTag-ligand plate, 6 min” value [2] was 3,107. For the same substance, the “INDUCED luminescence, CBS-HT immobilised on HaloTag-ligand plate, 7 min” value [2] was 3,377, the “INDUCED luminescence, CBS-HT immobilised on HaloTag-ligand plate, 8 min” value [2] was 3,037 and the “INDUCED luminescence, CBS-HT immobilised on HaloTag-ligand plate, 9 min” value [2] was 3,667. The “INDUCED luminescence, sample AS (HaloLink resin immobilisation experiment)” value [2] was 5,162,108, the “INDUCED luminescence, sample FT (HaloLink resin immobilisation experiment)” value [2] was 232,117 and the RESPONSE (induced/basal luminescence; 5 min; CBS-HT from wheat germ extract) [2] was 441 fold. For the same substance, the RESPONSE, CBS-HT immobilised on HaloLink RESIN [2] was 146 fold, the RESPONSE, CBS-HT immobilised on HaloTag-ligand plate, 0 min [2] was 19 fold and the RESPONSE, CBS-HT immobilised on HaloTag-ligand plate, 1 min [2] was 102 fold. The RESPONSE, CBS-HT immobilised on HaloTag-ligand plate, 2 min [2] was 21 fold, the RESPONSE, CBS-HT immobilised on HaloTag-ligand plate, 3 min [2] was 33 fold and the RESPONSE, CBS-HT immobilised on HaloTag-ligand plate, 4 min [2] was 18 fold. The RESPONSE, CBS-HT immobilised on HaloTag-ligand plate, 5 min [2] was 23 fold, the RESPONSE, CBS-HT immobilised on HaloTag-ligand plate, 6 min [2] was 41 fold and the RESPONSE, CBS-HT immobilised on HaloTag-ligand plate, 7 min [2] was 60 fold. The RESPONSE, CBS-HT immobilised on HaloTag-ligand plate, 8 min [2] was 22 fold, the RESPONSE, CBS-HT immobilised on HaloTag-ligand plate, 9 min [2] was 32 fold and the RESPONSE, sample AS (HaloLink resin immobilisation experiment) [2] was 175 fold. It also gave an RESPONSE, sample FT (HaloLink resin immobilisation experiment) [2] of 73 fold.
